Measurements published in the supplement of paper PMC9112550, “Optimization of the antimicrobial peptide Bac7 by deep mutational scanning” (BMC Biology, 2022).

System: Escherichia coli TOP10
Experiment: shrunken log2 fold change of peptide-encoding DNA abundance (4.5 h post-induction vs induction); higher = less antimicrobial activity (less host growth inhibition)
Settings: time post-induction: 4.5 h; library: site-saturation at positions 5, 18, 19, 20
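Note: peptides expressed intracellularly from a pBAD plasmid library in pooled LB shake-flask culture, induced with 0.3% L-arabinose, DNA abundance read by NGS, three biological replicates, DESeq2 with apeglm shrinkage.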

Sequence	shrunken log2 fold change
RRIRYRPPRLPRPRPRPAYIPRP	-0.00172
RRIRPRPPRLPRPRPRPCVKPRP	-0.139
RRIRARPPRLPRPRPRPDSTPRP	-0.0804
RRIRERPPRLPRPRPRPWDHPRP	-0.204
RRIRRRPPRLPRPRPRPYSDPRP	0.186
RRIRERPPRLPRPRPRPCIQPRP	-1.15
RRIRPRPPRLPRPRPRPKCWPRP	0.765
RRIRERPPRLPRPRPRPECWPRP	0.447
RRIRVRPPRLPRPRPRPKSFPRP	0.217
RRIRRRPPRLPRPRPRPINYPRP	-0.196
RRIRMRPPRLPRPRPRPDQPPRP	-0.0102
RRIRMRPPRLPRPRPRPAEPPRP	0.449
RRIRCRPPRLPRPRPRPMSVPRP	-0.0655
RRIRRRPPRLPRPRPRPEAAPRP	1.31
RRIRCRPPRLPRPRPRPWNNPRP	-0.107
RRIRYRPPRLPRPRPRPSNSPRP	-1.15
RRIRVRPPRLPRPRPRPLHPPRP	0.149
RRIRGRPPRLPRPRPRPNEGPRP	0.0414
RRIRSRPPRLPRPRPRPLGAPRP	0.295
RRIRPRPPRLPRPRPRPKSCPRP	0.0347
RRIRNRPPRLPRPRPRPGPVPRP	0.127
RRIRKRPPRLPRPRPRPSYWPRP	-0.144
RRIRERPPRLPRPRPRPEMAPRP	0.414
RRIRYRPPRLPRPRPRPHEKPRP	-0.00489
RRIRARPPRLPRPRPRPYDNPRP	-0.0875

Sequence	shrunken log2 fold change
RRIRCRPPRLPRPRPRPNDAPRP	-0.12
RRIRYRPPRLPRPRPRPKIIPRP	-1.21
RRIRYRPPRLPRPRPRPSWKPRP	-0.111
RRIRSRPPRLPRPRPRPDTYPRP	-0.713
RRIRDRPPRLPRPRPRPRQMPRP	0.019
RRIRYRPPRLPRPRPRPAPLPRP	-0.0323
RRIRMRPPRLPRPRPRPMHSPRP	0.126
RRIRHRPPRLPRPRPRPHVIPRP	-0.302
RRIRYRPPRLPRPRPRPTTDPRP	-0.775
RRIRERPPRLPRPRPRPLMVPRP	-0.498
RRIRWRPPRLPRPRPRPFPLPRP	-0.297
RRIRERPPRLPRPRPRPEHIPRP	-0.594
RRIRIRPPRLPRPRPRPSNQPRP	-1.08
RRIRTRPPRLPRPRPRPWSWPRP	-0.0374
RRIRMRPPRLPRPRPRPNKFPRP	0.0721
RRIRYRPPRLPRPRPRPDAGPRP	-0.492
RRIRARPPRLPRPRPRPCYPPRP	-0.209
RRIRYRPPRLPRPRPRPEYEPRP	-0.0176
RRIRERPPRLPRPRPRPTSAPRP	0.153
RRIRPRPPRLPRPRPRPNCHPRP	0.0382
RRIRMRPPRLPRPRPRPMMVPRP	-0.00664
RRIRHRPPRLPRPRPRPTVGPRP	0.0689
RRIRLRPPRLPRPRPRPQDVPRP	-0.0265
RRIRWRPPRLPRPRPRPGWVPRP	0.224
RRIRARPPRLPRPRPRPEKPPRP	0.64

Sequence	shrunken log2 fold change
RRIRLRPPRLPRPRPRPTPRPRP	0.763
RRIRERPPRLPRPRPRPVYHPRP	-1.35
RRIRMRPPRLPRPRPRPYMYPRP	0.0981
RRIRHRPPRLPRPRPRPEAMPRP	-0.00857
RRIRGRPPRLPRPRPRPLKFPRP	0.11
RRIRMRPPRLPRPRPRPTGQPRP	0.636
RRIRLRPPRLPRPRPRPRTFPRP	-0.0808
RRIRFRPPRLPRPRPRPIWYPRP	0.192
RRIRHRPPRLPRPRPRPVCEPRP	0.0977
RRIRERPPRLPRPRPRPDNLPRP	-0.00994
RRIRPRPPRLPRPRPRPLHYPRP	-0.11
RRIRERPPRLPRPRPRPCSGPRP	-0.434
RRIRCRPPRLPRPRPRPNVWPRP	0.0481
RRIRIRPPRLPRPRPRPCTAPRP	-0.285
RRIRMRPPRLPRPRPRPAVEPRP	0.741
RRIRYRPPRLPRPRPRPVVWPRP	-0.00976
RRIRRRPPRLPRPRPRPQMGPRP	0.231
RRIRDRPPRLPRPRPRPRHWPRP	0.548
RRIRGRPPRLPRPRPRPILWPRP	0.376
RRIRTRPPRLPRPRPRPQCIPRP	-0.247
RRIRDRPPRLPRPRPRPGYAPRP	0.137
RRIRTRPPRLPRPRPRPHGRPRP	0.0169
RRIRVRPPRLPRPRPRPFKEPRP	0.121
RRIRFRPPRLPRPRPRPCHIPRP	-0.11
RRIRSRPPRLPRPRPRPASLPRP	-0.0507

Sequence	shrunken log2 fold change
RRIRGRPPRLPRPRPRPCEEPRP	0.742
RRIRGRPPRLPRPRPRPTHRPRP	0.454
RRIRERPPRLPRPRPRPCVAPRP	0.258
RRIRNRPPRLPRPRPRPFNDPRP	-0.0288
RRIRMRPPRLPRPRPRPRHQPRP	0.155
RRIRHRPPRLPRPRPRPLSAPRP	0.242
RRIRCRPPRLPRPRPRPFGDPRP	-0.00748
RRIRHRPPRLPRPRPRPWCKPRP	-0.111
RRIRRRPPRLPRPRPRPHYSPRP	-0.538
RRIRMRPPRLPRPRPRPDAVPRP	3.73
RRIRLRPPRLPRPRPRPHAHPRP	-0.506
RRIRRRPPRLPRPRPRPKWHPRP	0.593
RRIRVRPPRLPRPRPRPNTYPRP	-0.71
RRIRQRPPRLPRPRPRPIGAPRP	-0.0217
RRIRVRPPRLPRPRPRPHSCPRP	-0.0621
RRIRFRPPRLPRPRPRPSCWPRP	0.144
RRIRGRPPRLPRPRPRPDALPRP	0.889
RRIRERPPRLPRPRPRPFVLPRP	-0.358
RRIRIRPPRLPRPRPRPPLQPRP	0.0345
RRIRARPPRLPRPRPRPFQVPRP	0.0694
RRIRVRPPRLPRPRPRPARRPRP	0.382
RRIRDRPPRLPRPRPRPMVSPRP	-0.00166
RRIRSRPPRLPRPRPRPSFTPRP	-0.524
RRIRSRPPRLPRPRPRPRPYPRP	-0.244
RRIRHRPPRLPRPRPRPTSMPRP	-0.0792

Sequence	shrunken log2 fold change
RRIRFRPPRLPRPRPRPRGFPRP	0.27
RRIRKRPPRLPRPRPRPLKNPRP	0.211
RRIRNRPPRLPRPRPRPNWYPRP	-0.647
RRIRARPPRLPRPRPRPRTMPRP	0.403
RRIRPRPPRLPRPRPRPSFAPRP	0.258
RRIRNRPPRLPRPRPRPAAYPRP	-0.0872
RRIRGRPPRLPRPRPRPCGIPRP	0.206
RRIRFRPPRLPRPRPRPSRPPRP	0.616
RRIRIRPPRLPRPRPRPDFIPRP	-0.447
RRIRIRPPRLPRPRPRPKAPPRP	-0.0151
RRIRPRPPRLPRPRPRPAGWPRP	0.765
RRIRQRPPRLPRPRPRPWVLPRP	0.0639
RRIRMRPPRLPRPRPRPFHPPRP	-0.0444
RRIRMRPPRLPRPRPRPNFIPRP	-0.371
RRIRVRPPRLPRPRPRPFYNPRP	-0.565
RRIRCRPPRLPRPRPRPECYPRP	-0.238
RRIRVRPPRLPRPRPRPDVLPRP	0.00338
RRIRFRPPRLPRPRPRPVWNPRP	-0.0763
RRIRLRPPRLPRPRPRPLHNPRP	-0.0106
RRIRVRPPRLPRPRPRPVIVPRP	-0.349
RRIRYRPPRLPRPRPRPHIDPRP	-1.95
RRIRWRPPRLPRPRPRPFCTPRP	-0.137
RRIRPRPPRLPRPRPRPGKMPRP	0.0379
RRIRVRPPRLPRPRPRPGDMPRP	-0.136
RRIRTRPPRLPRPRPRPGKRPRP	0.0687

Sequence	shrunken log2 fold change
RRIRRRPPRLPRPRPRPMDEPRP	0.0223
RRIRSRPPRLPRPRPRPVIWPRP	0.0455
RRIRRRPPRLPRPRPRPMIAPRP	0.121
RRIRYRPPRLPRPRPRPTHAPRP	-0.0504
RRIRYRPPRLPRPRPRPISKPRP	-0.562
RRIRHRPPRLPRPRPRPYWEPRP	-0.238
RRIRHRPPRLPRPRPRPRLEPRP	0.0466
RRIRGRPPRLPRPRPRPFFLPRP	0.301
RRIRARPPRLPRPRPRPIHCPRP	-0.189
RRIRMRPPRLPRPRPRPPHGPRP	1.06
RRIRVRPPRLPRPRPRPNQHPRP	-0.289
RRIRPRPPRLPRPRPRPVRPPRP	0.854
RRIRCRPPRLPRPRPRPSTFPRP	-0.714
RRIRWRPPRLPRPRPRPQINPRP	-0.348
RRIRLRPPRLPRPRPRPEVQPRP	0.0654
RRIRGRPPRLPRPRPRPWWDPRP	-0.145
RRIRRRPPRLPRPRPRPPAVPRP	0.606
RRIRFRPPRLPRPRPRPDDLPRP	0.00489
RRIRPRPPRLPRPRPRPCDRPRP	0.0787
RRIRVRPPRLPRPRPRPDTTPRP	-1.05
RRIRIRPPRLPRPRPRPQFCPRP	-0.32
RRIRVRPPRLPRPRPRPFFNPRP	-0.32
RRIRNRPPRLPRPRPRPVWFPRP	-0.113
RRIRCRPPRLPRPRPRPHYRPRP	0.127
RRIRQRPPRLPRPRPRPRGDPRP	0.346
